The supplement of paper PMC10126150
± gives the standard deviation of the averaged measurements.

Each sequence was assayed on ATP (assay: switch fluorescence ratio, 500 uM ATP over buffer (Cy3 cluster intensity, sum of 5 cycles each) (fold (ratio)); higher = stronger signal-on switching upon ATP binding; sequences stand for … in TCGTCGGCAGCGTCAGATGTGTATAAGAGACAGTTTTTTTTTTTTTTTTTTTTTTTTT…TC). Details: aptamer strand: ATP DNA aptamer (quencher-CACCTGGGGGAGTATTGCGGAGGAAGG + anchor), 100 nM annealed; ATP concentration: 500 uM.
Method in brief: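 Exposure to 500 uM ATP lasted 15 min at 22 °C before imaging, and a selection-buffer image was taken beforehand, for Cy3-labelled switching-strand clusters on a modified Illumina MiSeq flow-cell annealed to 100 nM quencher-labelled ATP aptamer. Five buffer/ATP cycles were run with NaOH stripping and re-annealing between them. The fluorescence ratio per cluster is summed target-cycle over summed buffer-cycle Cy3 intensity, averaged per switch-domain sequence. Clusters outside 100-1000 RFU were excluded.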
TGTTTTATAT gave a switch fluorescence ratio of 1.01 ± 0.021. With TGTTTTATTG the switch fluorescence ratio was 1.01 ± 0.016. With TGTTTTATTT the switch fluorescence ratio was 0.984 ± 0.018. With TGTTTTCGGA the switch fluorescence ratio was 1.01 ± 0.012. For TGTTTTCTGT, the switch fluorescence ratio was 0.976 ± 0.04. TGTTTTGTAT gave a switch fluorescence ratio of 1.07 ± 0.052. Sequence TGTTTTTAGG has a switch fluorescence ratio of 0.989 ± 0.023. TGTTTTTATT gave a switch fluorescence ratio of 1.015 ± 0.0047. TGTTTTTGT gave a switch fluorescence ratio of 1.18 ± 0.29. TGTTTTTTCG showed a switch fluorescence ratio of 0.992 ± 0.024. TGTTTTTTTG was tested, and the switch fluorescence ratio was 0.983 ± 0.041. TTAAAAAAGT showed a switch fluorescence ratio of 1.01 ± 0.02. TTAAAAACAT showed a switch fluorescence ratio of 1.024 ± 0.0014. TTAAAAATAA gave a switch fluorescence ratio of 1.04 ± 0.073. With TTAAAACCCC the switch fluorescence ratio was 1.04 ± 0.054. TTAAAACGGA was tested, and the switch fluorescence ratio was 1.02 ± 0.036. In the case of TTAAAACTTT, the switch fluorescence ratio is reported as 1.02 ± 0.025. TTAAAAGATT was tested, and the switch fluorescence ratio was 0.99 ± 0.075. TTAAAAGGGG gave a switch fluorescence ratio of 1.01 ± 0.044. With TTAAAAGGT the switch fluorescence ratio was 1.04 ± 0.056. TTAAAAGTGG gave a switch fluorescence ratio of 1.01 ± 0.022. TTAAAATACA gave a switch fluorescence ratio of 1.1 ± 0.14. Work on TTAAACCTAA yielded a switch fluorescence ratio of 1.02 ± 0.052. Sequence TTAAACCTCT has a switch fluorescence ratio of 1 ± 0.019. TTAAACCTTG was tested, and the switch fluorescence ratio was 1.15 ± 0.042. In the case of TTAAACGGGG, the switch fluorescence ratio is reported as 1.01 ± 0.035. TTAAAGCGGA was tested, and the switch fluorescence ratio was 1.01 ± 0.021. For TTAAAGGCAG, the switch fluorescence ratio was 0.989 ± 0.025. For TTAAAGGGTT, the switch fluorescence ratio was 1.04 ± 0.12. In the case of TTAAAGTAGG, the switch fluorescence ratio is reported as 0.992 ± 0.015. TTAAAGTGAG gave a switch fluorescence ratio of 0.99 ± 0.037. Sequence TTAAAGTGAT has a switch fluorescence ratio of 0.995 ± 0.036. For TTAAAGTGCT, the switch fluorescence ratio was 0.984 ± 0.021. In the case of TTAAAGTGGT, the switch fluorescence ratio is reported as 0.9789 ± 0.00047. TTAAAGTTAT gave a switch fluorescence ratio of 0.986 ± 0.061. In the case of TTAAAGTTTG, the switch fluorescence ratio is reported as 1.06 ± 0.063. For TTAAATAACT, the switch fluorescence ratio was 1.12 ± 0.16. Work on TTAAATAATC yielded a switch fluorescence ratio of 1 ± 0.035. For TTAAATAGAT, the switch fluorescence ratio was 1.01 ± 0.02. TTAAATAGGG gave a switch fluorescence ratio of 1 ± 0.057. TTAAATCCGT gave a switch fluorescence ratio of 0.989 ± 0.021. For TTAAATGGG, the switch fluorescence ratio was 0.9799 ± 0.0063. In the case of TTAAATGGTG, the switch fluorescence ratio is reported as 1.05 ± 0.072. Work on TTAAATTATC yielded a switch fluorescence ratio of 1.041 ± 0.0058. In the case of TTAAATTGCT, the switch fluorescence ratio is reported as 0.991 ± 0.025. TTAACACGTA showed a switch fluorescence ratio of 1.2 ± 0.024. With TTAACCAAGA the switch fluorescence ratio was 0.9755 ± 0.0022. In the case of TTAACGGGAA, the switch fluorescence ratio is reported as 1 ± 0.024. With TTAACGGGGA the switch fluorescence ratio was 1.02 ± 0.017. TTAACGGGGG showed a switch fluorescence ratio of 0.984 ± 0.043. Sequence TTAACGGTTC has a switch fluorescence ratio of 0.983 ± 0.017. TTAACGTAAG showed a switch fluorescence ratio of 1 ± 0.037. In the case of TTAACTATGG, the switch fluorescence ratio is reported as 1.016 ± 0.0066. TTAACTGGGA gave a switch fluorescence ratio of 0.998 ± 0.026. TTAACTTTTT gave a switch fluorescence ratio of 1.07 ± 0.053. TTAAGAACAA gave a switch fluorescence ratio of 1.02 ± 0.03. TTAAGAACG gave a switch fluorescence ratio of 1.002 ± 0.0087. TTAAGAATTG gave a switch fluorescence ratio of 1.04 ± 0.12. TTAAGAGGTG was tested, and the switch fluorescence ratio was 1.09 ± 0.034. Sequence TTAAGATTGG has a switch fluorescence ratio of 0.959 ± 0.015. In the case of TTAAGCAGTT, the switch fluorescence ratio is reported as 0.9853 ± 0.0056. With TTAAGCCCGG the switch fluorescence ratio was 1.04 ± 0.066. Work on TTAAGCCTG yielded a switch fluorescence ratio of 1.012 ± 0.0021. In the case of TTAAGCGAAT, the switch fluorescence ratio is reported as 1.002 ± 0.0059. Sequence TTAAGCGGGA has a switch fluorescence ratio of 1.01 ± 0.015. Work on TTAAGCTAGG yielded a switch fluorescence ratio of 1.004 ± 0.0054. With TTAAGGAGGT the switch fluorescence ratio was 1.03 ± 0.099. TTAAGGGAGC gave a switch fluorescence ratio of 1.02 ± 0.052. Sequence TTAAGGGCTT has a switch fluorescence ratio of 1.01 ± 0.021. TTAAGGTAGC showed a switch fluorescence ratio of 1.03 ± 0.013. TTAAGGTATG showed a switch fluorescence ratio of 0.997 ± 0.019. TTAAGGTTAA was tested, and the switch fluorescence ratio was 1 ± 0.029. TTAAGGTTTT was tested, and the switch fluorescence ratio was 1 ± 0.03. TTAAGTAATG gave a switch fluorescence ratio of 1.002 ± 0.0016. TTAAGTAGGG gave a switch fluorescence ratio of 1.01 ± 0.029. In the case of TTAAGTAGTT, the switch fluorescence ratio is reported as 1.02 ± 0.0099. Work on TTAAGTGCGG yielded a switch fluorescence ratio of 1 ± 0.02. With TTAAGTGCTG the switch fluorescence ratio was 1.02 ± 0.036. TTAAGTTACA showed a switch fluorescence ratio of 1.05 ± 0.032. With TTAAGTTCGG the switch fluorescence ratio was 1.02 ± 0.013. In the case of TTAAGTTTTC, the switch fluorescence ratio is reported as 0.979 ± 0.015. For TTAAGTTTTT, the switch fluorescence ratio was 0.98835 ± 0.00077. In the case of TTAATAAGGT, the switch fluorescence ratio is reported as 1.01 ± 0.035. With TTAATAATAT the switch fluorescence ratio was 1 ± 0.021. TTAATAGCGG gave a switch fluorescence ratio of 0.997 ± 0.049.
